From PMC6028451, “Cotranslational protein targeting to the membrane: Nascent-chain transfer in a quaternary complex formed at the translocon” (Scientific Reports, 2018)

Target: T1, SecYEG translocon embedded in phospholipid-containing nanodiscs (Escherichia coli, UniProt P0AGA2 1-443; P0AG96 1-127; P0AG99 1-110)
T1 construct: SecY, Escherichia coli; SecE, Escherichia coli; SecG, Escherichia coli; membrane scaffold protein MSP1D1, the belt of the nanodisc; the disc holds E. coli total lipids; also called non-mutated SecYEG; copies: 1 + 1 + 1 + 2
Experiment: not stated; proOmpA75-RNC with SecYEG in nanodiscs (Supplementary Fig. S4b)
Settings: both partners purified

B1: proOmpA75-RNC: ribosome-nascent-chain complex carrying the nascent chain of outer-membrane protein A (complex)
chain: MKKTAIAIAVALAGFATVAQAAPKDNTWYTGAKLGWSQYHDTGFINNNGPTHENQLGAGAFGGYQVNPYVGFEMG
B1 gave a Kd of 15 ± 3 nM.
